The target in test [1] is ICAM-1D1D5-Fc (human). In words: SPR; Biacore T-200; ICAM-1D1D5 Fc immobilized to 2100 RU on a CM5 chip pre-coupled to Protein A; wild type or mutant PF11_0521 DBLβ3_D4 injected, two-fold dilutions 4 nM to 500 nM, 40 µL/min, 240 s association, 660 s dissociation; 10 mM HEPES pH 8.0, 300 mM NaCl, 0.05% Tween-20; global fit to a one-site kinetic model. Background: In SPR one partner is held on a chip, and binding of the other changes the refractive index at the surface.

The target in test [2] is Recombinant His-tagged EPCR (human) (UniProt Q9UNN8). In words: SPR; Biacore T-200; biotinylated EPCR immobilized to 650 RU on a CAP chip (Biotin Capture Kit); head structures injected, two-fold dilutions 500 nM to 4 nM, 30 µL/min, 240 s association, 720 s dissociation; 10 mM HEPES pH 7.4, 300 mM NaCl, 0.05% Tween-20, 2 mg/ml ssDNA; one-site kinetic model.
Chain of Recombinant His-tagged EPCR (human) (Q9UNN8 18-238): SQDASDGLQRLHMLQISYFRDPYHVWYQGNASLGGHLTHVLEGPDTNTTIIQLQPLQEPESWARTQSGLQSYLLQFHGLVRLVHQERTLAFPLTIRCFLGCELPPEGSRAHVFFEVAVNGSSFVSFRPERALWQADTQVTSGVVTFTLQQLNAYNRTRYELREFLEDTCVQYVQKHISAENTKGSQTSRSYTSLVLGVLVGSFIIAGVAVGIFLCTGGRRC
Test [3] has as its target ICAM-1D1D5-Fc (human). Nature of the test: SPR; Biacore T-200; ICAM-1D1D5 Fc immobilized to 1,400 RU on a CM5 chip pre-coupled to Protein A; head structures injected, two-fold dilutions 4 nM to 500 nM, 40 µL/min, 240 s association, 600 s dissociation; 10 mM HEPES pH 8.0, 300 mM NaCl, 0.05% Tween-20; one-site kinetic model.

In test [1], “PF11_0521 DBLβ3_D4 G1083A (domain or fragment)” yielded a Kd of 3520 nM, a koff of 0.0701 s⁻¹ and an on-rate (kon) of 19900 M⁻¹ s⁻¹.
On the same counts, the results for “PF11_0521 DBLβ3_D4 G1084A (domain or fragment)” are 4060 nM, 0.0394 s⁻¹ and 9700 M⁻¹ s⁻¹.
On the same counts, the results for “PF11_0521 DBLβ3_D4 G1111A (domain or fragment)” are 34.1 nM, 0.000639 s⁻¹ and 18700 M⁻¹ s⁻¹.
For the substance “PF11_0521 DBLβ3_D4 H1121A (domain or fragment)”, in test [1], the dissociation constant Kd was 962 nM, the koff amounted to 0.00592 s⁻¹ and the kon stood at 6100 M⁻¹ s⁻¹.
On the same counts, the results for “PF11_0521 DBLβ3_D4 I1078S (domain or fragment)” are 1250 nM, 0.0235 s⁻¹ and 18800 M⁻¹ s⁻¹.
On the same counts, the results for “PF11_0521 DBLβ3_D4 K1124A (domain or fragment)” are 9.75 nM, 0.000154 s⁻¹ and 15900 M⁻¹ s⁻¹.
The matching figures for “PF11_0521 DBLβ3_D4 M1071S (domain or fragment)”: 24.6 nM, 0.000451 s⁻¹ and 18400 M⁻¹ s⁻¹.
Take “PF11_0521 DBLβ3_D4 N1082A (domain or fragment)”: in test [1], the Kd amounted to 1320 nM, the koff is 0.0244 s⁻¹ and the kon stood at 18400 M⁻¹ s⁻¹.
On the same counts, the results for “PF11_0521 DBLβ3_D4 N1089A (domain or fragment)” are 6.3 nM, 0.000114 s⁻¹ and 17900 M⁻¹ s⁻¹.
On the same counts, the results for “PF11_0521 DBLβ3_D4 P1116A (domain or fragment)” are 1690 nM, 0.00237 s⁻¹ and 1300 M⁻¹ s⁻¹.
The matching figures for “PF11_0521 DBLβ3_D4 R1077A (domain or fragment)”: 34.7 nM, 0.000382 s⁻¹ and 11000 M⁻¹ s⁻¹.
With “PF11_0521 DBLβ3_D4 T1120A (domain or fragment)”, in test [1], the Kd was 21.1 nM, the off-rate constant (koff) came out at 0.000298 s⁻¹ and the kon was 14100 M⁻¹ s⁻¹.
The matching figures for “PF11_0521 DBLβ3_D4 domain, wild type (domain or fragment)”: 3.2 nM, 6.2e-05 s⁻¹ and 19300 M⁻¹ s⁻¹.
“PFD1235w head structure (CIDRα1.6-DBLβ3) (domain or fragment)”: in test [2], the Kd came out at 17.1 nM, the koff was 0.000581 s⁻¹ and the kon worked out at 34000 M⁻¹ s⁻¹. Besides, in test [3], the Kd was 18 nM, the koff came out at 0.000108 s⁻¹ and the on-rate constant (kon) stood at 6000 M⁻¹ s⁻¹.

Usually Kd stands for the equilibrium constant for the complex coming apart. In general, koff refers to the first-order rate constant of dissociation. By kon is commonly meant a measure of how fast the partners come together.

For the origin of these results see paper PMC5374107.
